Values of other authors in publication PMC7764831.

Target: p53 (Homo sapiens) (UniProt P04637)
Sequence (P04637 whole entry): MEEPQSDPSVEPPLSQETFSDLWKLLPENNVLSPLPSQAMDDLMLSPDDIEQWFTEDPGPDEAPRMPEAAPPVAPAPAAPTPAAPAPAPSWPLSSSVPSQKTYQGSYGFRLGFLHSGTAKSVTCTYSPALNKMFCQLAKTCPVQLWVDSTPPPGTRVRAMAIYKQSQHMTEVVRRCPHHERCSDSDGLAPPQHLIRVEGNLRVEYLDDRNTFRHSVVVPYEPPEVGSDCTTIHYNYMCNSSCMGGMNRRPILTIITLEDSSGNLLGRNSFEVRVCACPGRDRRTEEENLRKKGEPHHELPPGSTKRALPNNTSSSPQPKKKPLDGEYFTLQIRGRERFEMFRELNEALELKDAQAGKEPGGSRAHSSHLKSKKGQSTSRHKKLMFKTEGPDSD

Azurin, sequence (P00282 21-148): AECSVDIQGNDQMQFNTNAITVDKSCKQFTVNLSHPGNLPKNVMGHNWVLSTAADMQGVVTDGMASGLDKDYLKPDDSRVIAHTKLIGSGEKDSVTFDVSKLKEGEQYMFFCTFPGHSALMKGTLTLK

For Azurin (from UniProt P00282), the Kd is listed as 6 µM.
